Laboratory results taken from the nanobody polyreactivity screen of Harvey et al. (2022).

Assay: yeast display, Sf9 membrane polyspecificity reagent, FACS + sequencing; frameworks hold sequencing errors
How it was run: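 In a synthetic yeast display library (Saccharomyces cerevisiae BJ5465), nanobody expression was induced with galactose for 36–48 hours. FACS gates were set low and high (top ~1%) using anti-HA fluorescence for expression and streptavidin fluorescence for binding of the Sf9 membrane reagent. Each polyreactivity label is drawn from the gate of origin.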

Sequence	polyreactivity (PSR sort gate)
QVQLVESGGGLVQAGGSLRLSCAASGRIFGRYAMGWYRQAPGKERELVAVISSGGSTYYADSVKGRFTISRDNAKNTVYLQMNSLKPEDTAVYYCAAVNRGGYDYWGQGTQVTVSS	low polyreactivity
QVQLVESGGGLVQAGGSLRLSWAASGGTFYFNAMGWYLQAAGKEWELVATIRYSGGSTYYADSVKGRFTISRDNAKNTAYLQMNSLKPADTAVYYCNARPRYLSPYRPFKYNYWGQGTQVTVSS	high polyreactivity
QVQLVESGGGLVQAGGSLRLSCAASGSIITDYAMGWYRQAPGKERELVATITDSGGSTYYADSVKGRFTISRDNAKNTVYLQMNSLKPEDTAVYYCAADRIHSVTRYDYDYWGQGTQVTVSS	low polyreactivity
QVQLVESGGGSVQAGGSLRLSCAASGFTFRYYAMGWYRQAPGKERELVARISYSGTSTYYADSVKGRFTISRDNAKNTVYLQMNSLKPEDTAVYYCAKLHRTYRQYIYDYWGQGTQVTVSS	high polyreactivity
QVQLVESGGGLVQAGGSLRLSCAASGRTFVPYAMGWYRQAPGKERELVARIDSSGGSTYYADSVKGRFTISRDNAKNTVYLQMNSLKPEDTAVYYCAAVFYYWSLRSYYWGQGTQVTVSS	high polyreactivity
QVQLVESGGGLVQAGGSLRLSCAASGRTFFKYVMGWYRQAPGKERELVAAISYRSGSTYYADSVKGRFTISRDNAKNTVYLQMNSLKPEDTAVYYCAIEPPPVKGDYWGQGTQVTVSS	low polyreactivity
QVQLVESGGGLVQAGGSLRLSCAASGITFYRYAMGWYRQAPGTEREVVATITSGGSTYYADSVKGRFTISRDNAKNTVYLQMNSLKPEDTAVYYCAAESVWTWYYTTAGMDYWGQGTQVTVSS	high polyreactivity
QVQLVESGGGLVQAGGSLRLSCAASGGIFPFYAMGWDRQAPGKERELVAVITSSGGSTFYSDSVKGRFTISRDNAKNTVYLQMNSLKPEDTAVYYGNARRVSREIWYGATGNDYWGQGTQGTVSS	low polyreactivity
QVQLVESGGGLVQAGGSLRLSCAASGSTFSYNAMGWYRQAPGKERELVAAITSSGSSTYYADSVKGRFTISRYNAKNTVYLQMNSMKPEDTAVYYCNAEVLFVAGQVQRNSGDYWGQGTEVTVSS	low polyreactivity
QVQLVESGGGLVQAGGSLRLSCAASGFIFILNAMGWYRQAPGKERELVAGISISGGSTYYADSVKGRFTISRDNAKNTVYLQMNSLKPEDTAVYYCAAPDGDTRVSDQAYDYWGQGTQVTVSS	low polyreactivity
QLHLVESGGGLVQAGGSLRLSCAGSGFTFGHSAMGWYRQAPGNDRELVASITWSGGSTYYADSVKGRFTISRDNAKNTVYLQMNSRKPEDTAVYYCNAQERRVRDYDYWGQGTQVTVSS	low polyreactivity
QVQLVESGGGLLQAGGSLSLICAASGFSIYKNAMGWYSQAPGKERELVAAITSSGGYTYYADSVKGRFTISRDNAKNTVYLQMNILKPEDTAVYYCAGSPQAYIADYDYWGQGTQVTVSS	low polyreactivity
QVQLVESGGGLVQAGGSLRLSSAASGRIFAHNAMGWSRQAPGKERELVAAITWSGGSTYYADSVKGRFTISRDNAKNTVYLQMNSLKPEDTAVYYCNTDSHGHLYIYWGQGNQVTVSS	low polyreactivity
QVQLVESGGGLVQAGGSLRLSCAASGRISVRIYAMGWYRQAPGKERELVAIISRSGGSTYYADSVKGRFTISRDNAKTTVYLQMNSLKPQDTAVYYCNARWSFSYTVWVASYWCLDDYWGQGTQVTVSS	high polyreactivity
QVQLVESGGGLVQAGGSLRLSCAASGGTFVHYTMGWYRPAPGKERELVASIRRGGSTNYADSVKGRFTISRDNAKNTVYLQMNSLKPEDTAVYYCAKRVQHYRYYYWGQGSQVTVSS	low polyreactivity
QVQLVESGGGLVQAGGSLRLSCAASGRIFGRNAMGWYRPAPGKERELVAAITSGGSTNYADSVKGRFTISRDNAKNTVYLQMNSLKPEDAAVYYCAARRVIYVRLDYDYWGQGTQVTVSS	high polyreactivity
QVQHVESGGGLVQAGGSLRLSCAASVSIFYDYAMGWYRQAPGKERELVAAINKSGGSTYYADSVKGRFTISRDNAKNTVYLQMNSLKPEDTAVYYCIARKRLGPVRYGYWGQGTQVTVST	high polyreactivity
QVQLVESGGGLVQAGGSLRLSCAASGSIFSSNTMGWYRPAPGKERELVAAITSGGGTYYADSVKGRFTISRDNAKNTVSLQMNSLKPEDTAVYYCAAQRVYKSSPSYDYWGQGTLVTVSS	low polyreactivity
QVQLVESGGGLVQAGGSLRLSCAASGRIFDYNVMGWYRQPPGKESELVAAISWDGDSTYYADSVKGRFTISRDNAKNSVYLQMKSLKPEDTAVYYCNRVEGGTSWADEMNYWGQGTQVTVSS	low polyreactivity
QVQLVESGGGLVQAGGSLRLSCAASGSTFVWYAMGWYRQAPGKEREFDATISWSDGSRYYADSVKGRFTISRDNAKNTVYLHMNSLKPEDPAVYYCASDVDRFFTYTYDYWGQGTQVTVSS	low polyreactivity
QVQLVESGGGLVQAGGSLRLSCAASGRTFGLYAMGWYRQAPGKERELVAAIDQSTGSTYYADSVKGRFTISRDNAKNTVYLQMNSLKPEDTAVYYCAAEEASTVRYYWYDYWGQVTQVTVSS	high polyreactivity
QVQLVASGGGLVQAGGTLRLSCAASGRIFGRYGMGWYSQAPGKERELVAAISRSGDRTYYADSVKGRFTISRDNAKNTVYLPMNSLKPEDTAVYYCAAYSYRYDYWGQGTQVTVAS	high polyreactivity

Sequence	polyreactivity (PSR sort gate)
QVQLVESGGGLVQAGGSLRLSCAASGSTLTDYAMGWYRQAPGKERELVAAITSDGDSTNYADSVKGRFTISRDNAKNTVYLQMNSLKPEDTAVYYCAAQGKYHYYVPAYEYWGQGTQVTVSS	low polyreactivity
QVQLVESGGGLVQAGGSLRLSCAASGSTFTPNAMGWYRQAPGKERELVAAIRGLNGRTYYADSVKGRFTISRDNAKNTVYLQMHSLKPEDTAVYYCAAGGYSYYFAWHDYWGQGTQVTVSS	low polyreactivity
QVQLVESGGGLVQAGGSLRLSCAASGIIFGYYAMGWYRQAPGKERELVAAITWSGGSTYYADSVKGRFTISRDNAKNTVYLQMNSLKPEDSAVYYCNADDDGRVSSTIVEYWGQGTQVTVSS	low polyreactivity
QDQLVESVGGLNQAGGSLRLSCAASGIIFYPYTIGWYRQAPGKERELVAAIRQSGTSTYYADSVKGRFTISRDNAKNTVYLQMNSLKPEDTAVYYCNVEPYQPPGHDRSYAYDYWGQGTQVTVSS	low polyreactivity
QVQLVESGGGLDQAGVRLRLSCAASGRIFISYAMGWYRQAPGNDTELVARISTRGGSTYYADSVKGRFTISRDNAKNTVYLQMNSLKPDDTAVYYCAADHHFCQYPGGGNRWYYYWGQGTHVTVSS	high polyreactivity
QVQLEESGGGLVQEGGSLRLICAASGRIFGSYVMGWYRQAPGKERELVAAISRRGGSTYYADSVKGRFTISRDNAKNTVYLQMNSLKTEVTAVYYCAAEFSPSSNPYDYWGQGTQVTVSS	high polyreactivity
QVQLVESGGGLVQAGGSLRLSCAASGRTFRRYAMGWYRQAPGNERELVAAISYNGGRTYYADSVKGRFTISRDNAKNTVYLQMNSLKPEDTAVYYCNARGPSWFGGRYYHWGQGTQVTVSS	high polyreactivity
QVQLVESGGGLFQAGGSHRLSCAASGSTFKQYAMGWYRQAPGKERELVAAIDRGGSTYYADSVKGRFTITRDNAKITVYLQMTSLKPEDTAVYYCAARFVQYRYAYDYWGQGTQVTVSS	low polyreactivity
QVQLVESGGGLVQAGGSLRLSCAASGSTSCIYAMGCYRQAPGKERELVAAISGSGVSTYYADSVKGRFTISRDNAKNTVYLQMNSLKPEDTAVYYCAAGYYGNGVFEYDYWGQGTQVTVSS	low polyreactivity
QVQLVESGGGLVQAGGSLRLSCAASGRIFPFYAMGWNRQAPGKERELVAAITSSGGRTYYADSVKGRFTISRDNAKNTVYLQMNSLIPEDTAVYYCAADDTDYPEYDYWGQGTQVTVSS	high polyreactivity
QGQLVESGGGLVQAVGSLRLSCAASGITLRIYAMGWYRQAPGKEREMVAGITSGGSTNYADSVKGRFTLSRDNAKNTVYLQMNSLKPEDTAVYYCAARQVRTSKLHMGYWGQGTQVTVSS	low polyreactivity
QVQLVESCGGLVQAGGRLRLICAASGRTFTYNAMGWYIQAPGQERELVAAINFSGVSTYYADSVKGRFTISRDNAKYTVYLQMNSLKPEDTAVYSCNTVGYHYESDYWGQGTQVTVSS	high polyreactivity
QVQLLESGGGLVQAGGSLRLSCAASGRTFYRYAMGWYRKAPGKETELVAANSSSGGSTYYADSVKGRFTISRDNAKNTVYLQMNSLKPEDTAVYYCAAQYFLFTTPYRYAPRMGYWGQGTQVTVSS	high polyreactivity
QVQLVESGGGLVQAGGRLRLSCAASGRTFYGYAMGWYRQAPGKERELVASISRDGSTNYADSVNGRFTISRDNAKNTVYLQMHSLKPEDTAVYYCAADIWYYRYPIYYYSYDYWGPGTQVTVSS	low polyreactivity
QVQLVESGGGLVQAGGSLRLSCAASGSIFVYYTMGWYRKAPGKERELVASIDSGDRTNYADSVKGRFTISRDNAKNTVYLQMNSLKPEDTAVYYCAARHSRSWRFNSRRRYGYWGQGTQVTVSS	high polyreactivity
QVQLVESGGGLVQAGGSLRLSCAASGGTFPVYAMGWYRQAPGKERELVAAISYSGVTTYYADSVKGRFTISRDNAKNTVYLQMNSLKPEDTAVYYCNADWRRWYIFSYDYWGQGTQVTVSS	low polyreactivity
QVQLVESGGGLVQAGGSLRLSCAASGGIIGWYAMGWYRQAPGKERELVAAINWSGADTYYADSVKGRFTISRDNAKNTVYLQMNSLKPEDTAVYYCAADGHKYRMDYWGQGTQVTVSS	low polyreactivity
QVQLVESGGGLVQAGGSLRLSCAASGSTFQSYAMGWYRQAPGKERELVAAISTSDTDRTYYADSVKGRFTISRDNAKNTVYLQMNSLKPEDTAVYYCNAEGTYRPEYDSWGQGTQVTVSS	low polyreactivity
QVQLVESGGGLVQAGGSLRLSCAASGFTFSFYAIGWYRQAPGKERELVAAINYSGGRTYYADSVKGRFTISRDNAKNTVYLQMNSLKPEDTAVYYCAVHIPSVSGVTDYYYWGQGSQVTVSS	high polyreactivity
RVQLVESGGGLVQAGGSLRLSCAASGFTFRDYAMGWYRQAPGKERELVARIRIRDSNTYYADSVKGRFTISRDNAKNTVYLQMNSLKPEDTAVYYCAVVANYVYSKYDYWGQGTQVTVSS	low polyreactivity
QVQLVESGGGLVQAGGSLRLSSASSGNILQGNAMGSYRQAPGKEMELVAAITSDGSTYADSVKGRFTISRDNAQNTVYLQMNSLKPEDTAVFYCNADGITSLPVTALDYWGQGTQVTVSS	low polyreactivity
